Here are results for nine molecules from patent publication US20230012428A1 (JIANGSU HENGRUI MEDICINE, published 2023).

Experiment [1] concerns the target T1, Human CD47-his (CD47-ECD-His) (human, UniProt Q08722 19-139, limits assumed).
T1 construct: also called hCD47; free human CD47 protein
The experiment is described as follows: ELISA, CD47-his coated on plate. In general terms: An ELISA detects its analyte on a solid surface through an enzyme-linked reagent.

Experiment [2] addresses T2, Cyno CD47-his (cyno, UniProt A0A2K5X523 19-139).
T2 construct: extracellular domain; not shown: His tag
The experiment is described as follows: ELISA, CD47-his coated on plate.

Experiment [3] concerns the target T3, PD-L1-Fc (prepared in-house) (human, UniProt Q9NZQ7 19-238, limits assumed).
T3 construct: Prepared in-house; also called human PD-L1-Fc; not shown: Fc
The experiment in a line: blocking ELISA, PD-L1-Fc coated, competitor biotin-labeled PD-1.

Experiment [4] deals with T1, Human CD47-his (CD47-ECD-His). The experiment in a line: SPR (Biacore T200), binder captured on Protein A chip, antigen in flow. (In general: Surface plasmon resonance follows binding to a sensor surface in real time, without labels.)
Experiment [5] deals with T4, Cyno PD-L1-His (cyno, UniProt G7PSE7 19-239).
T4 construct: Bought; not shown: His tag
The experiment is described as above.

The target in experiment [6] is T5, mPD-L1 (mouse, UniProt Q9EP73 19-238).
T5 construct: Bought; also called Mouse PD-L1-his; Mouse PD-L1
The description is as above.

Experiment [7] concerns the target T2, Cyno CD47-his. The experiment is described as above.
Experiment [8] deals with T6, hPD-L1-His (human, UniProt Q9NZQ7 19-239).
T6 construct: Bought; also called Human PD-L1-his; Human PD-L1; not shown: His tag
The experiment is described as above.

The target in experiment [9] is T3, PD-L1-Fc (prepared in-house). The experiment in a line: blocking ELISA, PD-L1-Fc coated, competitor biotin-labeled B7-1.
The target in experiment [10] is T4, Cyno PD-L1-His. The experiment is described as follows: ELISA, PD-L1-his coated on plate.
Experiment [11] has as its target T6, hPD-L1-His. The experiment is described as follows: ELISA, PD-L1-his coated on plate.
Experiment [12] addresses T7, CD47 extracellular domain and human IgG1Fc fusion protein (CD47-ECD-Fc) (human).
T7 construct: also called CD47-Fc
The experiment is described as follows: blocking ELISA, CD47-Fc coated, competitor biotin-labeled SIRPα-his.

In experiment [13] the target is T1, Human CD47-his (CD47-ECD-His). The experiment in a line: ELISA, CD47-his coated on plate. This is another data set of the same source.
Experiment [14] concerns the target T2, Cyno CD47-his. The experiment in a line: ELISA, CD47-his coated on plate. The source holds these as a separate data set.
Experiment [15] addresses T8, natural CD47 on the surface of human red blood cells (human, UniProt Q08722 19-323).
T8 construct: whole, on cells; also called CD47 on the surface of red blood cells
The experiment is described as follows: flow cytometry on human red blood cells, 10 µg/ml, Alexa 488 goat anti-human IgG secondary antibody, geometric mean. (In general: In flow cytometry, cells or beads pass a laser one at a time.)

Experiment [16] concerns the target T5, mPD-L1. The experiment in a line: ELISA, PD-L1-his coated on plate.

Where two headings read alike, the source gives them in different places.

B1: h1831-19-S58 (bispecific antibody, human IgG4 S228P, kappa)
heavy: not shown
light: DIVLTQSPASLAVSPGQRATITCRASESVSIHGTHLMHWYQQKPGQPPKLLIYAASNLESGVPARFSGSGSGTDFTLTINPVEAEDTANYYCQQSFEDPLTFGQGTKLEIKRTVAAPSVFIFPPSDEQLKSGTASVVCLLNNFYPREAKVQWKVDNALQSGNSQESVTEQDSKDSTYSLSSTLTLSKADYEKHKVYACEVTHQGLSSPVTKSFNRGEC
notes: Anti-PD-L1 IgG4 antibody h1831 with SIRPγ variant S58, GS19 linker; also called PD-L1-CD47 bifunctional fusion protein
Usually EC50 stands for the midpoint of the concentration-response curve. Low values mean greater potency, high ones weaker potency. A word on the IC50: it is the concentration that gives 50% inhibition. Low readings indicate inhibition by little substance, high ones a need for much substance. Broadly, the Kd is the equilibrium constant for the complex coming apart. A higher Kd goes with lower affinity. Consider B1, for which the EC50 in experiment [1] came to 0.0469 µg/mL; with Cyno CD47-his [2], 0.06 µg/mL; with Cyno PD-L1-His [10] it was 0.237 µg/mL; with hPD-L1-His [11] it was 0.0947 µg/mL. Moreover, the IC50 in [3] turned out to be 0.122 µg/mL; in experiment [9], 0.16 µg/mL. In addition, the Kd came out at 1770 pM in experiment [4], 89.1 pM in the experiment with Cyno PD-L1-His [5], 1940 pM in the experiment with Cyno CD47-his [7] and 82.5 pM with hPD-L1-His [8]. In addition, in the experiment with mPD-L1 [6], the binding result is given as “no binding”.

B2: h1831-19-S79 (bispecific antibody, human IgG4 S228P, kappa)
heavy: not shown
light: DIVLTQSPASLAVSPGQRATITCRASESVSIHGTHLMHWYQQKPGQPPKLLIYAASNLESGVPARFSGSGSGTDFTLTINPVEAEDTANYYCQQSFEDPLTFGQGTKLEIKRTVAAPSVFIFPPSDEQLKSGTASVVCLLNNFYPREAKVQWKVDNALQSGNSQESVTEQDSKDSTYSLSSTLTLSKADYEKHKVYACEVTHQGLSSPVTKSFNRGEC
notes: h1831 IgG4 with SIRPγ variant S79, GS19 linker; also called PD-L1-CD47 bifunctional fusion protein
B2: the results for the IC50 in experiment [3] and in experiment [9] were 0.0723 µg/mL and 0.113 µg/mL, respectively. The Kd amounted to 3830 pM in experiment [4], 121 pM with Cyno PD-L1-His [5], 4630 pM with Cyno CD47-his [7] and 87.4 pM with hPD-L1-His [8]. Besides, the binding result with mPD-L1 [6] is “no binding”. The EC50 in the experiment with Cyno PD-L1-His [10] is 0.214 µg/mL; with hPD-L1-His [11], 0.0976 µg/mL.

B3: h1831K-19-S37 (bispecific antibody, human IgG4 S228P, kappa)
heavy: not shown
light: DIVLTQSPASLAVSPGQRATITCRASESVSIHGTHLMHWYQQKPGQPPKLLIYAASKLESGVPARFSGSGSGTDFTLTINPVEAEDTANYYCQQSFEDPLTFGQGTKLEIKRTVAAPSVFIFPPSDEQLKSGTASVVCLLNNFYPREAKVQWKVDNALQSGNSQESVTEQDSKDSTYSLSSTLTLSKADYEKHKVYACEVTHQGLSSPVTKSFNRGEC
notes: h1831K IgG4 (h1831 with light chain N53K) with SIRPγ variant S37, GS19 linker; also called h831K-19-S37; PD-L1-CD47 bifunctional fusion protein
With B3, the IC50 in experiment [12] was 0.252 µg/mL. Also, the EC50 is 0.0609 µg/mL in experiment [13], 0.033 µg/mL with Cyno CD47-his [14], 0.0972 µg/mL in the experiment with Cyno PD-L1-His [10] and 0.046 µg/mL with hPD-L1-His [11]. For the same molecule, the Kd in experiment [4] is 1250 pM; in the experiment with Cyno PD-L1-His [5], 49.3 pM; with Cyno CD47-his [7], 1480 pM; in the experiment with hPD-L1-His [8], 56.3 pM. In addition, the binding result with mPD-L1 [6] is “no binding”.

B4: h1831-19-S37 (bispecific antibody, human IgG4 S228P, kappa)
heavy: not shown
light: DIVLTQSPASLAVSPGQRATITCRASESVSIHGTHLMHWYQQKPGQPPKLLIYAASNLESGVPARFSGSGSGTDFTLTINPVEAEDTANYYCQQSFEDPLTFGQGTKLEIKRTVAAPSVFIFPPSDEQLKSGTASVVCLLNNFYPREAKVQWKVDNALQSGNSQESVTEQDSKDSTYSLSSTLTLSKADYEKHKVYACEVTHQGLSSPVTKSFNRGEC
notes: h1831 IgG4 with SIRPγ variant S37, GS19 linker; also called PD-L1-CD47 bifunctional fusion protein
Consider B4, for which the Kd was found to be 1160 pM in experiment [4], 47.1 pM with Cyno PD-L1-His [5], 1390 pM with Cyno CD47-his [7] and 52.9 pM in the experiment with hPD-L1-His [8]. Also, in the experiment with mPD-L1 [6], the binding result is “no binding”.

B5: Anti PD-L1 IgG4 antibody h1830 (antibody, V domains shown)
VH: QVQLQESGPGLVKPSQTLSLTCTVSGGSISDGSAYWSWIRQHPGKGLEYIGFISRAGSTYNTPSLKGRVTISRDTSKNQFSLKLSSVTAADTAVYYCARSGGWLAPFDYWGRGTLVTVSS
VL: DIVMTQSPDSLAVSLGERATINCKSSQSLFYHSNQKHSLAWYQQKPGQPPKLLIYGASTRESGVPDRFSGSGSGTDFTLTISSLQAEDVAVYYCQQYYGYPYTFGGGTKVEIKR
notes: also called PD-L1 monoclonal antibody h1830
Turning to B5, in experiment [15], the binding result is listed as “no binding (tested: 10 µg/ml)”. For the same molecule, the IC50 in experiment [3] was 0.035 µg/mL; in experiment [9], 0.0752 µg/mL. Also, the Kd in the experiment with Cyno PD-L1-His [5] was determined as 498 pM; with mPD-L1 [6], 97500 pM; with hPD-L1-His [8], 466 pM. Further, the EC50 with Cyno PD-L1-His [10] was found to be 0.23 µg/mL; in the experiment with mPD-L1 [16], 0.0289 µg/mL; with hPD-L1-His [11], 0.131 µg/mL.

B6: Anti-CD47 antibody Hu167-IgG4 AA (antibody, V domains shown)
VH: QVQLVQSGAEVKKPGASVKVSCKASGYTFTSYWMHWVRQAPGQGLEWMGNIDPSDSETHYNQKFKDRVTMTRDTSISTAYMELSRLRSDDTAVYYCARWGYLGRSAMDYWGQGTTVTVSS
VL: DVQITQSPSSLSASVGDRVTITCRTSKSISKFLAWYQQKPGKAPKLLIYSGSTLQSGVPSRFSGSGSGTDFTLTISSLQPEDFATYYCQQHNEYPWTFGGGTKVEIKR
notes: Control antibody, prepared according to WO2018095428A1; also called Hul67 IgG4AA
In the case of B6, the figures for the EC50 (in experiment [1]; in the experiment with Cyno CD47-his [2]) were 0.0703 µg/mL and 0.0317 µg/mL, respectively. Besides, the figures for the Kd (in [4]; in the experiment with Cyno CD47-his [7]) were 653 pM and 1090 pM, respectively.

B7: Anti-CD47 antibody hu5F9 (antibody, human IgG4 S228P, kappa, V domains shown)
VH: QVQLVQSGAEVKKPGASVKVSCKASGYTFTNYNMHWVRQAPGQRLEWMGTIYPGNDDTSYNQKFKDRVTITADTSASTAYMELSSLRSEDTAVYYCARGGYRAMDYWGQGTLVTVSS
VL: DIVMTQSPLSLPVTPGEPASISCRSSQSIVYSNGNTYLGWYLQKPGQSPQLLIYKVSNRFSGVPDRFSGSGSGTDFTLKISRVEAEDVGVYYCFQGSHVPYTFGQGTKLEIKR
notes: Control antibody
With B7, in experiment [12], the IC50 was found to be 0.263 µg/mL.

B8: PD-L1 antibody h1831 (antibody, human IgG4 S228P, kappa, V domains shown)
VH: QVQLVQSGAEVKKPGASVKVSCKASGYTFTSYWMHWVRQAPGQGLEWMGRITPSSGFAMYNEKFKNRVTMTRDTSTSTVYMELSSLRSEDTAVYYCARGGSSYDYFDYWGQGTTVTVSS
VL: DIVLTQSPASLAVSPGQRATITCRASESVSIHGTHLMHWYQQKPGQPPKLLIYAASNLESGVPARFSGSGSGTDFTLTINPVEAEDTANYYCQQSFEDPLTFGQGTKLEIKR
For the molecule B8, the results for the binding result (in [15]; with mPD-L1 [6]) were “no binding (tested: 10 µg/ml)” and “no binding”, respectively. Besides, the IC50 in experiment [3] was 0.0266 µg/mL; in experiment [9] it was 0.0494 µg/mL. For the same molecule, the Kd worked out at 91.9 pM in the experiment with Cyno PD-L1-His [5] and 80.6 pM with hPD-L1-His [8]. Further, the EC50 was found to be 0.222 µg/mL with Cyno PD-L1-His [10] and 0.129 µg/mL with hPD-L1-His [11].

B9: HRP00052 (antibody, V domains shown)
VH: QVQLVQSGAEVKKPGASVKVSCKASGYTFTSYWMHWVRQAPGQGLEWMGRIGPNSGFTSYNEKFKNRVTMTRDTSTSTVYMELSSLRSEDTAVYYCARGGSSYDYFDYWGQGTTVTVSS
VL: DIVLTQSPASLAVSPGQRATITCRASESVSIHGTHLMHWYQQKPGQPPKLLIYAASNLESGVPARFSGSGSGTDFTLTINPVEAEDTANYYCQQSFEDPLTFGQGTKLEIKR
Regarding B9, the values for the IC50 in experiment [3] and in [9] were 0.032 µg/mL and 0.0307 µg/mL, respectively. The Kd was found to be 151 pM in the experiment with Cyno PD-L1-His [5] and 144 pM in the experiment with hPD-L1-His [8]. In addition, the EC50 with Cyno PD-L1-His [10] is 0.196 µg/mL; with hPD-L1-His [11], 0.163 µg/mL.
